{"source": "patent US20160258940A1", "about": "(IMRA AMERICA, published 2016)", "target": "T1, EpCAM (epithelial cell adhesion molecule) on the surface of HT29 colon cancer cells (UniProt P16422 24-314, limits assumed)", "T1 construct": "whole, on cells; HT29 is a human cell line", "T1 sequence (looked up)": "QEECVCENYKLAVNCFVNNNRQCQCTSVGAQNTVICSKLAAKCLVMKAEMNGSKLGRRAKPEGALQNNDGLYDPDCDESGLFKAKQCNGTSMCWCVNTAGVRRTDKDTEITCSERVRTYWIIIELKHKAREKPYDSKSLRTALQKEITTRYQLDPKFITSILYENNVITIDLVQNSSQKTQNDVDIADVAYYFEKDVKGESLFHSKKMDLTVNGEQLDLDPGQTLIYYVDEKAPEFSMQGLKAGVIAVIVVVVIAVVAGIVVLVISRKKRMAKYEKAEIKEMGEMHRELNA", "assay": "confocal fluorescence microscopy of HT29 spheroids with FITC-Ep114/PEG/gold nanoparticles (PEG ratios 100/1, 200/1, 300/1)", "method": "A colon cancer cell line HT29 was used to conduct a cellular uptake test. First, by using 96 holes type culture plate for spheroids, EZ-Sphere™ (Asahi Glass Co., Ltd.), spheroid of HT29 cells was formed.\nSpecifically, HT29, 4×10⁵ cells were suspended in a culture medium in which 20 ng/ml of human EGF (manufactured by Miltenyi Biotec, K.K.), 20 ng/ml of human FGF-2 (manufactured by Miltenyi Biotec K.K.), 1/50 amount of B-27 supplement×50 (manufactured by GIBCO), and 1/100 amount of Penicillin-Streptomycin Solution×100 (manufactured by Wako Pure Chemical Industries, Ltd.) were added to 3 ml of D-MEM/F-12 medium (Dulbecco's Modified Eagle Medium: Nutrient Mixture F-12 1:1 Mixture, manufactured by GIBCO). The suspension was dispensed to each well of 200 μl, and was cultured in CO₂ incubator at 37° C. for 72 hours.\nThen, a part of the spheroids (approximately 20 μl) and the gold particle-peptide complex were placed on a glass bottom dish (D110300, Matsunami Glass Ind., Ltd.), and irradiated laser of 488 nm with 40 magnification objective lens by using an inverted confocal laser microscope (FLUOVIEW FV1000IX81 type, manufactured by Olympus Corporation), and observed using a filter for Alexa488.", "note": "Primed or numbered codes have the meaning given here. Ends that are not written are not given here. FITC′ = fluorescein isothiocyanate"}
{"binder": "{FITC′}-KHLQCVRNICWSGGK (cysteine pairing not given here; also: bound to PEG-covered gold nanoparticles, In the assay the peptide covered approx. 15 nm gold nanoparticles that were partially covered with mPEG-SH 5k (PEG:particle ratios 100/1, 200/1, 300/1; 2000 peptides per particle); also called EP114 peptide)", "note": "[EpCAM-binding peptide Ep114 (FITC-labelled), bound to PEG-covered gold nanoparticles]", "values": [{"measurement": "binding result", "value": "binds"}]}
